Columns and labels:
[1] = target: T1, synthetic gamma-chain peptide ATL(K)SRM with K changed to serine
T1 chain: ATLSSRM

[2] = target: T2, synthetic gamma-chain peptide ATW(K)TRW with K changed to serine
T2 chain: ATWSTRW

[3] = target: T3, synthetic gamma-chain peptide QLI(K)AIQ with K changed to serine
T3 chain: QLISAIQ

[4] = target: T4, fibrin gel (Sigma Aldrich fibrinogen, 20 mg/mL, gelled with thrombin, factor XIIIa and CaCl2), P02671
T4 chain 1: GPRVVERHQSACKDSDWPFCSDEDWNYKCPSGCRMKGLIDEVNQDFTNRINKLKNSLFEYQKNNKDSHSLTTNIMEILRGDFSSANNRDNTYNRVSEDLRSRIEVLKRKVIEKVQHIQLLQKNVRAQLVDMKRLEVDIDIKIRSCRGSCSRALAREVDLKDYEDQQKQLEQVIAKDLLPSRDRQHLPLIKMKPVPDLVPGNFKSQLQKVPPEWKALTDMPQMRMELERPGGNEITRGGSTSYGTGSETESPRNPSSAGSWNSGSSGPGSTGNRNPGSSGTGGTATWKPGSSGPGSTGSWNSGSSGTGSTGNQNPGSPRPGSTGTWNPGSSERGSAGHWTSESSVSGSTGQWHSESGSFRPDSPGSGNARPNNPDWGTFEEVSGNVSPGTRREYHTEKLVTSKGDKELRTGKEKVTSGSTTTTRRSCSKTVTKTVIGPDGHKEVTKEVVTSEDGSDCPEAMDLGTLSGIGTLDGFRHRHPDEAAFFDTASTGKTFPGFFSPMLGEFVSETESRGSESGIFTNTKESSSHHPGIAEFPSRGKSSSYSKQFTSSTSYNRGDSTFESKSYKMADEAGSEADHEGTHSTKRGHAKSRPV
T4 chain 2: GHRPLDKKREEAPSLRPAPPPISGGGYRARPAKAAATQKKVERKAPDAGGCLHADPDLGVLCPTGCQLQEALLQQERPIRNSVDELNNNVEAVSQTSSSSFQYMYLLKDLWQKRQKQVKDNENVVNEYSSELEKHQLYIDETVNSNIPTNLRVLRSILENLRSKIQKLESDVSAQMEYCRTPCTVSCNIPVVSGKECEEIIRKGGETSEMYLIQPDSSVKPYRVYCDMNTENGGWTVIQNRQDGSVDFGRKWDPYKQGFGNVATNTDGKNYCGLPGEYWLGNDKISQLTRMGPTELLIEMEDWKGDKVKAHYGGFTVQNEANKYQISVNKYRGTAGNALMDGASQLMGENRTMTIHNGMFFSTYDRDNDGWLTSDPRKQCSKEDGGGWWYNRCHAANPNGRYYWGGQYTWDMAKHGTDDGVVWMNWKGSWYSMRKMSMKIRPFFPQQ
T4 chain 3: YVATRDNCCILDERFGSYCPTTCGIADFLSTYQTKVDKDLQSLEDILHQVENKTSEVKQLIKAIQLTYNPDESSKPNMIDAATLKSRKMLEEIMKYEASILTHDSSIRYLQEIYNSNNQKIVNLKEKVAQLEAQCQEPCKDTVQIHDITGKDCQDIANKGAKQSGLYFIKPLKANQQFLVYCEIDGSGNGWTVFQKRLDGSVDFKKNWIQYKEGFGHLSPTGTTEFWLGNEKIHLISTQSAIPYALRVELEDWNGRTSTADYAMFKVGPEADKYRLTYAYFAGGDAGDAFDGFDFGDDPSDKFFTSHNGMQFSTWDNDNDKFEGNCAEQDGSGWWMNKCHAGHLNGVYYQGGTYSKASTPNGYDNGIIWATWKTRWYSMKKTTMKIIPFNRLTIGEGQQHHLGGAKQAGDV

[5] = target: T5, synthetic gamma-chain peptide TYS(K)AST with K changed to serine
T5 chain: TYSSAST

[6] = target: T6, Ala-rFbg (recombinant fibrinogen, gamma-chain K88A, K111A, K382A, K399A)
T6 chain 1: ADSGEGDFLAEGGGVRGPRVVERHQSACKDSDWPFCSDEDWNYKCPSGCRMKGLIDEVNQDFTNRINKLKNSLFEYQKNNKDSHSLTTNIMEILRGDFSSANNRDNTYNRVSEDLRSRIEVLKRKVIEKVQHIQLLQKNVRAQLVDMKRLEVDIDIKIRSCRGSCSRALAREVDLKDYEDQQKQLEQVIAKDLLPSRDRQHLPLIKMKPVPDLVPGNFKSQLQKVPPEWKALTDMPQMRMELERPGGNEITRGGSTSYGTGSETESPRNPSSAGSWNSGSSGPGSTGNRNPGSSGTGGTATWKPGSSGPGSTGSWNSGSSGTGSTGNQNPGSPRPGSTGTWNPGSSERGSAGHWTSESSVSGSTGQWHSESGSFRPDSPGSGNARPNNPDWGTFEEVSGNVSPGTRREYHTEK
T6 chain 2: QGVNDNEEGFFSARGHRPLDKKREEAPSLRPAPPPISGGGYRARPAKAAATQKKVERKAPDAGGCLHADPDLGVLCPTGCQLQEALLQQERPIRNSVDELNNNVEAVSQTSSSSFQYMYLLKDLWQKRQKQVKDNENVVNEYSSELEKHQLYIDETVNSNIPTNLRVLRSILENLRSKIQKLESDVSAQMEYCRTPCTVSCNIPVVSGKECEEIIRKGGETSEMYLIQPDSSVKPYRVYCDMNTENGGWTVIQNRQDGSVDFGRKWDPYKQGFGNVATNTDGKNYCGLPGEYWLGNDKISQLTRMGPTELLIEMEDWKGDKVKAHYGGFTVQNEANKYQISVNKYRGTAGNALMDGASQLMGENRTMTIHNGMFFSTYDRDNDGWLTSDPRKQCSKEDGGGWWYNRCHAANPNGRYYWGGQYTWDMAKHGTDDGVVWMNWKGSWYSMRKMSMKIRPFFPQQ
T6 chain 3: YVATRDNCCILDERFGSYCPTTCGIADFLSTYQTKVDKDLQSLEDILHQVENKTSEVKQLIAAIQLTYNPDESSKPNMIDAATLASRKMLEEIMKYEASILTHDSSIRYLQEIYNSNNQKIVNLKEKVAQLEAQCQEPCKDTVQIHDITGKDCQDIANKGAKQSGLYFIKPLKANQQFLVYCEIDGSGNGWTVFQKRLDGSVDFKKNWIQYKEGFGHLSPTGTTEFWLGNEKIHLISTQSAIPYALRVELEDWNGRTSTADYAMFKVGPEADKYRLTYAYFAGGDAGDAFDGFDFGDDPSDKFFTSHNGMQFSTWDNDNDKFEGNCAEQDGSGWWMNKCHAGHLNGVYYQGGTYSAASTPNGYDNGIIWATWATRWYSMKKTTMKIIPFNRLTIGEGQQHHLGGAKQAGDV

B1: human plasmin (Merck) (protein)
chain: KVYLSECKTGNGKNYRGTMSKTKNGITCQKWSSTSPHRPRFSPATHPSEGLEENYCRNPDNDPQGPWCYTTDPEKRYDYCDILECEEECMHCSGENYDGKISKTMSGLECQAWDSQSPHAHGYIPSKFPNKNLKKNYCRNPDRELRPWCFTTDPNKRWELCDIPRCTTPPPSSGPTYQCLKGTGENYRGNVAVTVSGHTCQHWSAQTPHTHNRTPENFPCKNLDENYCRNPDGKRAPWCHTTNSQVRWEYCKIPSCDSSPVSTEQLAPTAPPELTPVVQDCYHGDGQSYRGTSSTTTTGKKCQSWSSMTPHRHQKTPENYPNAGLTMNYCRNPDADKGPWCFTTDPSVRWEYCNLKKCSGTEASVVAPPPVVLLPDVETPSEEDCMFGNGKGYRGKRATTVTGTPCQDWAAQEPHRHSIFTPETNPRAGLEKNYCRNPDGDVGGPWCYTTNPRKLYDYCDVPQCAAPSFDCGKPQVEPKKCPGRVVGGCVAHPHSWPWQVSLRTRFGMHFCGGTLISPEWVLTAAHCLEKSPRPSSYKVILGAHQEVNLEPHVQEIEVSRLFLEPTRKDIALLKLSSPAVITDKVIPACLPSPNYVVADRTECFITGWGETQGTFGAGLLKEAQLPVIENKVCNRYEFLNGRVQSTELCAGHLAGGTDSCQGDSGGPLVCFEKDKYILQGVTSWGLGCARPNKPGVYVRVSRFVTWIEGVMRNN
plasmin cleavage efficiency of synthetic peptide, HPLC [1]: Peptide sequences including S instead of K showed a significant reduction in cleavage efficiency compared to the original sequences
plasmin cleavage efficiency of synthetic peptide, HPLC [2]: Peptide sequences including S instead of K showed a significant reduction in cleavage efficiency compared to the original sequences
plasmin cleavage efficiency of synthetic peptide, HPLC [3]: Peptide sequences including S instead of K showed a significant reduction in cleavage efficiency compared to the original sequences
time course of plasmin cleavage sites in the alpha-chain of fibrin gels, high-resolution ESI-MS (0.005 mU/ml plasmin, up to 2 h) [4]: cleavage begins in the αC region of fibrinogen with the most prominent cleavage at positions 602 (K|MADE) and 620 (K|RGHA). Next, cleavage sites further down the αC region are cleaved ... (e. g. positions 527 (K|TFPG), 510 (R|HRHP), 225 (K|MKPV) and 238 (K|SQLQ)). At the same time, cleavage in the α
time course of plasmin cleavage sites in the beta-chain of fibrin gels, high-resolution ESI-MS [4]: cleavage of the β-chain starts at the N-terminus highlighted by positions 52 (K|REEA) and 72 (R|ARPA) ... Subsequently, the α-helical part between fragment D and E is cleaved by plasmin (e. g. 152 (K|DLWQ) and 160 (K|QVKD))
time course of plasmin cleavage sites in the gamma-chain of fibrin gels, high-resolution ESI-MS [4]: only one additional cleavage site was found in this time-resolved assay for γ-chain ... With only 5 cleavage sites detected during the early stages of plasmin degradation
plasmin cleavage efficiency of synthetic peptide, HPLC [5]: Peptide sequences including S instead of K showed a significant reduction in cleavage efficiency compared to the original sequences
plasmin cleavage analysis of target sites (peptide fragments detected by MS) [6]: Position 382 shows a partial cleavage for the mutants (both cleaved and non-cleaved peptides detected)
plasmin cleavage at the mutated gamma-chain sites 88, 111, 382, 399, high-resolution ESI-MS after 24 h digest in solution [6]: no cleavage was detected in either of the two mutants for all 4 mutations
